Laboratory results taken from patent US9187525B2, “Methods of treating ophthalmic diseases using NPR-B agonists” (Shire Orphan Therapies GmbH, dated 2015).
Numbered stars: 1 amine (or outer) side, 2 acyl side, 3 side chain; on linkers, the order of the positions; unused ones are H or OH. Square brackets hold non-standard residues; d marks the D form. * marks the point of attachment. Ebe = (R)-2-amino-3-(methylsulfanyl)propanoic acid, CSC[C@H](N[*:1])C(=O)[*:2]; 6059 = 3-(Octane-1-sulfinyl)-propionic acid, CCCCCCCCS(=O)CCC(=O)*; 6057 = 3-Octylsulfanyl-propionic acid, CCCCCCCCSCCC(=O)*; 6058 = 7-Butylsulfanyl-heptanoic acid, CCCCSCCCCCCC(=O)*; 6014 = (E)-dodec-2-enoic acid, CCCCCCCCC/C=C/C(=O)*; 6056 = (2S)-2-octylcyclopropanecarboxylic acid; Pro(trans-4-F) = O=C(O)[C@@H]1C[C@@H](F)CN1; Phe(4-Br) = N[C@@H](Cc1ccc(Br)cc1)C(=O)O; Dodecenoyl(5Z) = CCCCCC/C=C\CCCC(=O)*; Hyp = O=C(O)[C@@H]1C[C@@H](O)CN1; tBuAla = CC(C)(C)C[C@H](N)C(=O)O; dAgb = N=C(N)NCC[C@@H](N)C(=O)O; dAgp = N=C(N)NC[C@@H](N)C(=O)O; KM‑116‑167 = not defined here; NMeL = CN[C@@H](CC(C)C)C(=O)O; NMeK = CN[C@@H](CCCCN)C(=O)O; Tle = CC(C)(C)[C@H](N)C(=O)O; Lauroyl = CCCCCCCCCCCC(=O)*; dDab = NCC[C@@H](N)C(=O)O; NMeA = CN[C@@H](C)C(=O)O; Octanoyl = CCCCCCCC(=O)*; 6054 = not defined here; Nva = CCC[C@H](N)C(=O)O; Hexanoyl = CCCCCC(=O)*; GABA = NCCCC(=O)O; Sar = CNCC(=O)O

B1: JAL-1230 (peptide)
peptide: Octanoyl-AFRL[NMeA][NMeL]DRI-NH2
modifications: not fully specified (some residues); printed as Occ-ala-Phe-arg-Leu-Nma-Nml-Asp-Arg-Ile-NH2
B2: JAL-1227 (peptide)
peptide: Octanoyl-AFRL[Hyp][Ebe]DRI-NH2
modifications: not fully specified (some residues); printed as Occ-ala-Phe-arg-Leu-Hyp-Ebe-Asp-Arg-Ile-NH2
B3: JAL-1228 (peptide)
peptide: Octanoyl-AFRLK[NMeL]DRI-NH2
modifications: not fully specified (some residues); printed as Occ-ala-Phe-arg-Leu-Lys-Nml-Asp-Arg-Ile-NH2
B4: JAL-1241 (peptide)
peptide: 6057-FRL[Hyp][NMeL]DRI-NH2
modifications: not fully specified (some residues); printed as 6057-Phe-arg-Leu-Hyp-Nml-Asp-Arg-Ile-NH2
B5: JAL-1232 (peptide)
peptide: Octanoyl-AFR[Nva][Hyp][NMeL]DRI-NH2
modifications: not fully specified (some residues); printed as Occ-ala-Phe-arg-Nva-Hyp-Nml-Asp-Arg-Ile-NH2
B6: JAL-0542 (peptide)
peptide: Hexanoyl-[GABA]FGLKLDRIS[Ebe]-NH2
SMILES: CCCCCC(=O)NCCCC(=O)N[C@@H](Cc1ccccc1)C(=O)NCC(=O)N[C@@H](CC(C)C)C(=O)N[C@@H](CCCCN)C(=O)N[C@@H](CC(C)C)C(=O)N[C@@H](CC(=O)O)C(=O)N[C@@H](CCCNC(=N)N)C(=O)N[C@H](C(=O)N[C@@H](CO)C(=O)N[C@@H](CSC)C(N)=O)[C@@H](C)CC
B7: JAL-1233 (peptide)
peptide: Octanoyl-AFR[Ebe][Hyp][NMeL]DRI-NH2
modifications: not fully specified (some residues); printed as Occ-ala-Phe-arg-Ebe-Hyp-Nml-Asp-Arg-Ile-NH2
B8: JAL-1239 (peptide)
peptide: 6054-FRL[Hyp][NMeL]DRI-NH2
modifications: not fully specified (some residues); printed as 6054-Phe-arg-Leu-Hyp-Nml-Asp-Arg-Ile-NH2; reading uncertain
B9: JAL-1242 (peptide)
peptide: 6058-FRL[Hyp][NMeL]DRI-NH2
modifications: not fully specified (some residues); printed as 6058-Phe-arg-Leu-Hyp-Nml-Asp-Arg-Ile-NH2
B10: JAL-1157_02 (peptide)
peptide: Octanoyl-XF[dR]L[Hyp]LDRI-NH2
modifications: not fully specified (some residues); printed as Oct-pip-Phe-arg-Leu-Hyp-Leu-Asp-Arg-Ile-NH2
B11: JAL-1159 (peptide)
peptide: Octanoyl-AFR[KM‑116‑167][NMeL]DRI-NH2
modifications: not fully specified (some residues); printed as Occ-ala-Phe-arg-(KM-116-167)-Nml-Asp-Arg-Ile-NH2; reading uncertain
B12: JAL-1237 (peptide)
peptide: 6014-FRL[Hyp][NMeL]DRI-NH2
modifications: not fully specified (some residues); printed as 6014-Phe-arg-Leu-Hyp-Nml-Asp-Arg-Ile-NH2
B13: JAL-1226 (peptide)
peptide: Octanoyl-AFRL[Hyp][Tle]DRI-NH2
modifications: not fully specified (some residues); printed as Occ-ala-Phe-arg-Leu-Hyp-Tbg-Asp-Arg-Ile-NH2
B14: JAL-1229 (peptide)
peptide: Octanoyl-AFRL[NMeK][NMeL]DRI-NH2
modifications: not fully specified (some residues); printed as Occ-ala-Phe-arg-Leu-Nmk-Nml-Asp-Arg-Ile-NH2
B15: JAL-1243 (peptide)
peptide: 6059-FRL[Hyp][NMeL]DRI-NH2
modifications: not fully specified (some residues); printed as 6059-Phe-arg-Leu-Hyp-Nml-Asp-Arg-Ile-NH2
B16: JAL-1231 (peptide)
peptide: Octanoyl-AFRL[Sar][NMeL]DRI-NH2
modifications: not fully specified (some residues); printed as Occ-ala-Phe-arg-Leu-Sar-Nml-Asp-Arg-Ile-NH2
B17: JAL-1224 (peptide)
peptide: Octanoyl-AFRL[Hyp]IDRI-NH2
modifications: not fully specified (some residues); printed as Occ-ala-Phe-arg-Leu-Hyp-Ile-Asp-Arg-Ile-NH2
B18: JAL-1225 (peptide)
peptide: Octanoyl-AFRL[Hyp][tBuAla]DRI-NH2
modifications: not fully specified (some residues); printed as Occ-ala-Phe-arg-Leu-Hyp-Npg-Asp-Arg-Ile-NH2
B19: JAL-1214 (peptide)
peptide: Lauroyl-FRL[Hyp][NMeL]DRI-NH2
modifications: not fully specified (some residues); printed as 832-Phe-arg-Leu-Hyp-Nml-Asp-Arg-Ile-NH2
B20: JAL-1240 (peptide)
peptide: 6056-FRL[Hyp][NMeL]DRI-NH2
modifications: not fully specified (some residues); printed as 6056-Phe-arg-Leu-Hyp-Nml-Asp-Arg-Ile-NH2
B21: JAL-1238 (peptide)
peptide: {Dodecenoyl(5Z)}-FRL[Hyp][NMeL]DRI-NH2
modifications: not fully specified (some residues); printed as 6015-Phe-arg-Leu-Hyp-Nml-Asp-Arg-Ile-NH2

Molecular target: T1, natriuretic peptide receptor-B (human)
T1 chain: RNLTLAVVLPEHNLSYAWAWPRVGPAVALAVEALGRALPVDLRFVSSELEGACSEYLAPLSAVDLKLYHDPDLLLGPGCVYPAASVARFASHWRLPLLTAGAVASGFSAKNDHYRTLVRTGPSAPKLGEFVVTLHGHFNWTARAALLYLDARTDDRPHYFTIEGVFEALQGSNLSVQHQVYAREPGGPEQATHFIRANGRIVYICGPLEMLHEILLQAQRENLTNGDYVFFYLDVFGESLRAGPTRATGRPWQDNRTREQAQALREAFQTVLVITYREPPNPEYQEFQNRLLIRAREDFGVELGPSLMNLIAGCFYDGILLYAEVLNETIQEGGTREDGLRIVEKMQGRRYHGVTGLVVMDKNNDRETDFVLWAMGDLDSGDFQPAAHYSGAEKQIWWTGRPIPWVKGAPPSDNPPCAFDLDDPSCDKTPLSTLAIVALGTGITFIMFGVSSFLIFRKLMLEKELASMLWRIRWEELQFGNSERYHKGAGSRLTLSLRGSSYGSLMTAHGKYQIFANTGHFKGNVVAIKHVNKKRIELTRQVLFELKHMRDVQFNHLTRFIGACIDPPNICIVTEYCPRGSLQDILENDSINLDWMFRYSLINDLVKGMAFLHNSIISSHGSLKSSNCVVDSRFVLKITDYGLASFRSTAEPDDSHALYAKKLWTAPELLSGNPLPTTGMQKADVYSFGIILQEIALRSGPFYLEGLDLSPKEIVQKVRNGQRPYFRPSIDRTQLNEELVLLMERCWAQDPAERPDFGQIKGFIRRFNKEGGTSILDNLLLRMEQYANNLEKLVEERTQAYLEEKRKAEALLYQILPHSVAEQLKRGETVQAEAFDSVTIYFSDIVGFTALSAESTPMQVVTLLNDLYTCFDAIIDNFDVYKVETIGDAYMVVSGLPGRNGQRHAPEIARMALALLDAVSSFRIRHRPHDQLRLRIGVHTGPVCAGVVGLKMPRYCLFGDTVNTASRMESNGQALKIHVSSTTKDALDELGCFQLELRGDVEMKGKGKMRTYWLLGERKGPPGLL
Assay: cell-based or functional assay

Binder | EC50 group, cGMP in GTM-3 cells [µM]
B1 | ≤ 15
Octanoyl-[dA]F[dR]L[Hyp]LDRI-NH2 [JAL-1156_02] | ≤ 5
B2 | ≤ 5
B3 | ≤ 5
B4 | ≤ 5
Octanoyl-[dA]F[dAgp]LPLDRI-NH2 [JAL-1122] | ≤ 5
Octanoyl-[dA]F[dAgb]LPLDRI-NH2 [JAL-1121] | ≤ 5
B5 | ≤ 5
Octanoyl-[dA]F[dDab]LPLDRI-NH2 [JAL-1120] | ≤ 5
B6 | ≤ 15
B7 | ≤ 5
B8 | ≤ 5
Octanoyl-[dA]FGL[Pro(trans-4-F)]LDRI-NH2 [JAL-1115] | ≤ 5
B9 | ≤ 5
B10 | ≤ 15
B11 | ≤ 15
Octanoyl-[dA]F[dR]L[Pro(trans-4-F)]LDRI-NH2 [JAL-1114] | ≤ 5
B12 | ≤ 5
Hexanoyl-[Ebe][dA]FGLKLDRI-NH2 [JAL-0541] | ≤ 15
B13 | ≤ 15
B14 | ≤ 5
B15 | ≤ 5
B16 | ≤ 5
B17 | ≤ 5
B18 | ≤ 1
B19 | ≤ 5
B20 | ≤ 5
B21 | ≤ 5
Octanoyl-[dA][Phe(4-Br)][dR]L[Hyp]LDRI-NH2 [JAL-1116] | ≤ 1
